Assay results published in the RNAGym collection of RNA variant scans (doi:10.1073/pnas.2313332121).
This sample holds only a part of the variants without activity.

B1: TPR 5TU (parent)
chain: GGAUCUUCUCGAUCUAACAAAAAAGACAAAUCUGCCACAAAGCUUGAGAGCAUCUUCGGAUGCAGAGGCGGCAGCCUUCGGUGGCGCGAUAGCGCCAACGUUCUCAACUAUGACACGCAAAACGCGUGCUCCGUUGAAUGGAGUUUAUCAUG

Variants of: B1
Assay: polymerase ribozyme fitness, log enrichment relative to wild type (log ratio); higher = more active; in vitro selection for triplet polymerase activity
In short: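 Input and output libraries were sequenced on Illumina after a single in vitro selection round, run in triplicate on PCR-built, transcribed mutant libraries of each subunit of a heterodimeric triplet polymerase ribozyme. Selection annealed libraries to a biotinylated primer, the partner subunit and triplets, incubated them frozen at −7 °C, then gel-excised extended constructs for streptavidin-bead capture and RT-PCR. Genotypes with ≥10 input reads and ≥1 read per output were kept. Fitness is the logarithm, taken in base 2, of genotype enrichment divided by wild-type enrichment, using inverse-variance-weighted replicate averages.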

Row | Variant | polymerase ribozyme fitness (log ratio)
1 | GGAUGUUCUCGAUCUAACAAAAAGGGCAAAUCUGCCACAAAGCUUGAGAGCAUCUUCGGAUGCAGAGGCGGCAGCCUUCGGUGGCGCGAUAGCGCCAACGUUCUCAACUAUGGCAGGCAAAACGCGUGCUCCGUUGAAUGGAGUUUAUCAUG [C5G A24G A26G A113G C116G] | ≤ -4.2
2 | GGAUCUUCUCGAUCUAACAAAAAAGACAAAUCUGCCACAAAGCUUGAGAGUAUCUUCGGAUGCAGAGGCGGCAGCCUUCGGUGGCGCGAUAGCGCUAACGUUCUCAACUAUGACACGCAAAACACGUGCUCCGUUGAAUGGAGUUUAUCAUG [C51U C96U G124A] | -0.0401
3 | GGAUCUUCUCGAUCUAACAAAAAAGACAAAUCUGCCACAAAGCUUGAGAGCUUCUUCGGAGGCAGAGGCGGCAGCCUUCGGUGGCGCGAUGGCGCAAACGUUCUCAACUAUGACACCCAAAACGCGUGCUCCGUUGAAUGGAGUUUAUCAUG [A52U U61G A91G C96A G117C] | -3.76
4 | GGAUCUUCUCGAUCUAACAAAAAAGACAAAUCUGCCACAAAGCUUGUGAGCAUCUUCGGAUGCAGAGGCGGCAGCCUUCGGUGGCGCGAUAGCGCCAACGGUCUCAACUAUGACAGGCAAAACGCGUGCUCCGUUGAAUGGAGUUUAUCAUG [A47U U101G C116G] | -2.38
5 | GGAUCUUCUCGAUCUAACAAAAAAGACAAAUCUGCCACAAAGCUUGAGAGCAUCUUCGGAUGCUGAGGUGGCAGCCUUCGGUGGCGCGAUAGCGCCAACGUUCUCAACUAUGACACGCAAAACGCGUGCUCCGUUGAAUGGAGUUUAUCAUG [A64U C69U] | ≤ -4.2
6 | GGAUCUUCUCGAUCUAACAAAAACGACAAAUCUGCCACAAAGCUUGAGAGCAUCAUCGGAUGCAGAGGCGGCUGCCUUCGGUGUCGCGAUAGCGCCAACGUACUCAACUUUGACACGCCAAACGCGUGCUCCGUUGAAUGGAGUUUAUCAUG [A24C U55A A73U G84U U102A A110U A119C] | ≤ -4.2
7 | GGAUCUUCUCGAUCUAACAAAAAAGACAAAUCUGCCCCAAAGCUUGAGAGCAUCUUCGGAUGCAGAGGCGGCAGCCUUCGGUGGCACGAUAGCGCCAACGUUAUCAACUAUGACACGCAUAACGCGUGCUCCGUUGAAUGGAGUUUAUCAUG [A37C G86A C103A A120U] | ≤ -4.2
8 | GGAUCUUCUCGAUCCAACAAAAAAGACAAAUCUGCCACAAAGCUUGAGAGCAUCUUCGGAUGCAGAGGCGGCAGCCUUCGGUGGCGCGAUAGUGCCAACGUUCUCAACUAUGACACGCAAAUCGCGUGCUCCGUUGAAUGGAGUUUAUCAUG [U15C C93U A122U] | -0.873
9 | GGAUCUUCUCGAUCUAACAAAAAAGACAAAUCUGCCACACAGCUUGAGAGCAUCUUCGGAUGCAGAGGCGGCAGCCUUCGGUGGCGCGAUAGCGCCAACGUUCUCAACUAUGACACGCAAAACGCGUGCUCCGUUGAAUGGAGUUGAUCAUG [A40C U146G] | -0.247
10 | GGAUCUUCUCGAUCUAACAAAAAAGACAAAUCUGCCACAAAGCUUGAGAGCAUCUUCGGAUGCAGAGGCGGCAGCCUUCGGUGGCGCGAUAGAGCCAACGCUCUCAACUAUGACACGCAAAACUCGUGCUCCGUUGAAUGGAGUUUAUCAUG [C93A U101C G124U] | -2.74
11 | GGGUCUUCUCGAUCUAACAAAAAAGACAAAUCUGCCACAAAGCUUCAGAGCAUAUUCGGAUGCAGAGGCGGCAGCCUUCGGUGGCGCGAUAGCGCCAACGUUCUCAACUAUGACACGCAAAACGCGUGCUCCGUUGAAUGGAGUUCAUCAUG [A3G G46C C54A U146C] | -3.68
12 | GGAUCUUCUCGAUCUAACAAAAAAGACAAAUCUGCCACAAAGCUUGAGAGCAUCUUUGGAUGCAGAGGCGGCAGCCUUCGGUGGCGCGAUAGGGCCAACGUUCUCAACUAUGACACGCAAAACGCGUGCUCCGUUGAAUGGAGUUUAUCAUG [C57U C93G] | -3.36
13 | GGAUCUUCUCGAUCUAACAAAAAAGACAAAUCUGCCACAAAGCUUGAGAGCAUCUUCGGAUGCAGAGGCGGCAGCUUUCGGUGGCGCGAUAGCGCCAACGUUCUCAACUAUGACACACAAAACGCGUGCUCCGUUGAAUGGAGUUUAUCAUG [C76U G117A] | 0.649
14 | GGAUCUUCUCGACCUAACAAAAAAGACAAAUCUGCCACAAAGCUUGAGAGCAUCUUCGGAUGCAGAGGCGGCAGCCUUCGGUGGCGCGAUAGGGCCAAAGUUCUCAACUAUGACACGCAAAACGCGCGCUCCGUUGAAUGGAGUUUAUCAUG [U13C C93G C99A U127C] | ≤ -4.2
15 | GGAUCUUCUGGAUCUAACAAAAAAGACAAAUCUGUCACAAAGCUUGAGAGCAUCUUCGGAUGCAGAGGCGGCAGCCUUCGGUGGCGCGAUAGCGCCAACGUUCUCAACUAUGACACGCAAAACGCGUGCUCCGUUGAAUGGAGUUUAUCAUG [C10G C35U] | -3.4
16 | GGAUCUUCUCGAUCUAACAAAAAAGACAAAUCUGCCACAAAGCUUGAGAGCAUCUACGGAUGCAGAGGCGGCAGCCUUCGGUGGCACGAUAGCGCCAACGUUCUCAACUAUGACACGCAAAACGCGUGCUCCGUUGAAUGGAGUUUAUCAUG [U56A G86A] | -1.16
17 | GGAUCUUCUCCAUCUAACAAAAAAGACAAAUCUGCCACACAGCUUGAGAGCAUCUUCGGAUGCAGAGGCGGCAGCCUUCGGUGACGCGAUAGCGCCUACGUUCUCAACUAUGACACGCAAAACGCGUGCUCCGUUGAAUGGAGUUUAUCAUG [G11C A40C G84A A97U] | -3.7
18 | GGAUCUUCUCGAUCUAACAAAAAAGACAAAAGUGCCACAAUGCUUGAGAGCAUCUUCGGAUGCAGAUGCGGCAGCCUUCCGUGGCCCGAUAGCGCCAACGUUCUCAACUAUGACACGCAAAACGCGUGCUCCGUUGAAUGGAGUUUUUCAUG [U31A C32G A41U G67U G80C G86C A147U] | ≤ -4.2
19 | GGAUCUUCUCGAUGUAACAAAAAAGACAGAUCUGCCACAAAGCUUGAGAGCAUUUUCGGAUGCAGAGGCGGCAGCCUUCGGUGGCGCGAUAGCGCCAACGUUCUCAACUAUGACACGCAAAACGCGUGCUCGGUUGAAUGGAGUUUAUCAUG [C14G A29G C54U C132G] | ≤ -4.2
